Measurements from US20260183437A1, “VHH ANTIBODY CONJUGATES WITH HETEROARYL CHELATORS” (ABDERA THERAPEUTICS INC., priority 2022, published 2026).

What was measured:
Assay in all cases: ABC (Antibody Binding Capacity) assay, receptor density
Type in all cases: cell-based
HEK-DLL3 = test system: HEK-DLL3
Method: (§1) In order to test efficacy of the immunoconjugate binding with respect to target density receptor density was measured on target positive cell lines. Target density was measured using the ABC (Antibody Binding Capacity) assay. Cancer cells expressing the target of interest, as well as a negative control cell line, were harvested with cell dissociation buffer, seeded at about 5×10^4 cells per well into 96-well V bottom plate (Sarstedt 82.1583.001). Cells were tested for receptor expression using QuantiBRITE PE beads (BD Cat #340495) and a PE-conjugated anti-hu IgG (Biolegend clone HP6017) following the manufacturers' instructions. In brief, VHH-Fc and isotype control antibodies were prepared at suitable saturating concentrations based on previous experiments. Antibody sample dilutions were incubated with the panel of cell lines on ice for 1 hour. Cells were washed twice with 1% FBS in 1×PBS (FACS buffer), centrifuged at 400 G for 4 min. Cells were then incubated with 4 μg/mL mouse PE-conjugated anti-hu and DAPI (1:1000) for 30 minutes on ice. Cells were washed twice with FACS buffer, centrifuged at 400 G for 4 minutes and resuspended in FACS buffer. Fluorescence intensity on the PE channel was measured on the iQue Screener platform, and data were processed with ForeCyt software. The amount of PE signal generated from the different primary antibody was then fit to a standard curve based off of known PE molecules/Quantibrite bead samples to determine the number of antibody-binding sites per cell. Relative antibody binding sites correlate to the number of antigens or receptors on cell surface.

H82 = test system: H82
Method: as §1

SHP-77 = test system: SHP-77
Method: as §1

B1: Rovalpituzumab: control antibody for DLL3 binding (Creative Biolabs #TAB-216CL) (antibody, chains of the INN, looked up, V domains shown)
VH: QVQLVQSGAEVKKPGASVKVSCKASGYTFTNYGMNWVRQAPGQGLEWMGWINTYTGEPTYADDFKGRVTMTTDTSTSTAYMELRSLRSDDTAVYYCARIGDSSPSDYWGQGTLVTVSS
VL: EIVMTQSPATLSVSPGERATLSCKASQSVSNDVVWYQQKPGQAPRLLIYYASNRYTGIPARFSGSGSGTEFTLTISSLQSEDFAVYYCQQDYTSPWTFGQGTKLEIK
HEK-DLL3
  Estimated number of epitopes/cell: 1679 epitopes/cell
H82
  Estimated number of epitopes/cell: 936 epitopes/cell
SHP-77
  Estimated number of epitopes/cell: 969 epitopes/cell
